Tests used:
[1] = target: Full-length FLAG-tagged recombinant SMCHD1 (mouse) (UniProt Q6P5D8); test: negative-stain electron microscopy; purified FLAG-rSMCHD1, 100 ng/ml, 0.75% uranyl formate, 80 kV
[2] = target: the molecule itself; test: SEC; affinity-purified wild-type and mutant hinge domains on a Superdex 75 10/300 column, 0.5-ml fractions, A280 and Coomassie-stained SDS-PAGE

Molecule: Full-length FLAG-tagged recombinant SMCHD1, Q6P5D8 1-2007
- stoichiometry N [1]: 2

B1: SMCHD1 hinge domain, recombinant wild type (residues 1616 to 1963) (domain or fragment, mouse, UniProt Q6P5D8 1616-1963, looked up)
chain: NDVKKQQQMAALTKEKDELSKSITMYRSLFDANKQLVDEMKCQAEEAKLKETQLRNELKAYNIDIPATQQTTHIEALLEKKITEQNELKKRPRRLCTLPNYTKRSGDILGKIAHLAQIEDDRAAMVISWHLASDMDCVVTLTTDAARAIYDETQGRQQVLPLDSIYRKTLPDWKRPLPHFRNGKLHFKPFGNPVFARDLLTFPDNIEHCETVFGMLLGDTIILDNLDAANHYRKEVVKITHCPTLLTRDGDRIRSNGKFGGLQNKAPPMDKLRGMVFGAPVPKQCVVLGKQIDLIQQYRTALYRLSSVNEDLDNQLQYLHTPDMKKKKQELDEQEKSLKRIEQKLGMT
notes: SMCHD1 SMC hinge domain, mouse, residues 1616 to 1963; Cloned into pET28a; also called wild-type HD; WT hinge; source: E. coli BL21-RosettaBlue, purified (Talon resin)
- stoichiometry N [2]: 2
